Laboratory results as given in paper PMC6454087.

Biological target: mouse rec1c sNASP variant protein (V281I, L282F) (mouse)
Experiment: BLI; Octet K2, 30 C; sNASP WT or variant immobilised on aminopropylsilane (APS) biosensors, histones in assay buffer at various concentrations (62.5 to 1,000 nM shown for H4), association 240 s; n = 4

Kd [nM]	kon [M⁻¹ s⁻¹]	Substance
23.2	15900	mouse histone H4 (from UniProt P62806 1-103) (natural protein)
14.5	37200	mouse H3.1/H4 tetramer complex (from UniProt P68433 1-136; P62806 1-103)
